Laboratory results: patent US9976134B2, “Thermolysin variants” (Danisco US Inc., priority 2007, dated 2018)

Columns and labels:
[1] = Stability assay in 25% TIDE 2X detergent without DTPA (residual Abz-AGLA-Nba protease activity); type: physicochemical; details: 180 min at 50°C; variant residual AGLA activity divided by wild-type residual activity
Experimental: (§1) The stability of thermolysin and variants thereof was measured after incubation under defined conditions in the presence of 25% TIDE® 2× detergent. The initial and residual activity was determined.
(§2) MTPs were obtained from Costar (type 9017) and from Greiner (black plate, type 655076). Test Method Unstressed Conditions:
(§3) First, 20 μl thermolysin containing culture supernatant was diluted with 180 μl MES assay buffer. Then, 20 μl diluted supernatant was diluted further with 180 μl MES assay buffer. Subsequently 10 μl of this dilution was transferred into 190 μl AGLA-substrate solution in a pre-warmed plate (Greiner 655076) at 25° C. Any air bubbles present were blown away and the plate was measured according to the AGLA protease assay protocol described below.
(§4) First, 20 μl of culture supernatant was diluted with 180 μl 27.5% TIDE®+detergent solution and placed in the iEMS shaker. The plate covered with a plate seal was incubated for a total of 60 minutes at 32° C. at 900 rpm. In addition, 20 μl of culture supernatant was diluted with 180 μl 27.5% TIDE®−solution and placed in the iEMS shaker. This plate covered with a plate seal was incubated for a total of 180 minutes at 50° C. at 900 rpm.
(§5) Subsequently after the respective incubations, 20 μl of either of these solutions were diluted with 180 μl MES assay buffer and 10 μl of this dilution were diluted with 190 μl AGLA-substrate solution in a pre-warmed plate (Greiner 655076) at 25° C.
(§6) Fluorescence measurements were taken at excitation of 350 nm and emission of 420 nm. The spectrofluorometer software calculated the reaction rates (=slope) of the increase in fluorescence for each well to a linearly regressed line of (milli-) RFU/min. The ratio of the residual and initial AGLA activity was used to express the 25% TIDE® 2× stability as follows: Percentage of residual activity=[slope of stressed]*100/[slope of unstressed]
(§7) For each sample (thermolysin and variants thereof) the performance index was calculated by dividing the residual activity of the variant by the residual activity of thermolysin. The performance index compared the stability of the variant and the standard thermolysin enzyme (e.g., wild type or parental enzyme), determined under the same conditions.
(§8) In these experiments, the liberation of Abz-AG by protease cleavage of Abz-AGLA-Nba was monitored by fluorescence spectrometry (Ex. 350/Em. 420). The rate of appearance of Abz-AG was a measure of proteolytic activity.
(§9) The Abz-AGLA-Nba assay solution was prepared by adding 1 ml of the Abz-AGLA-Nba stock to 19 ml MES substrate buffer and mixed well for at least 2 minutes. Subsequently the thermolysin or variants thereof containing culture supernatants were diluted with MES assay buffer to a concentration of 1-6 μg protein per ml.
(§10) The assay was performed by adding 10 μl of diluted protease solution to each well, followed by the addition of 190 μl Abz-AGLA-Nba assay solution that was pre-equilibrated for at least 15 minutes at 25° C. The solutions were vigorously mixed, and the liberation of Abz-AG by protease cleavage of Abz-AGLA-Nba was monitored by fluorescence spectrometry at 25° C. in kinetic mode with excitation set at 350 nm and emission set at 420 nm. The rate of appearance of Abz-AG was a measure of proteolytic activity in the samples. The protease activity was expressed as RFU (relative fluorescence units·min^−1).
(§11) As described in Example 1, the stability of thermolysin variants was measured by determining the AGLA activity before and after incubation in the presence of TIDE® 2× heavy duty liquid (HDL) detergent at an elevated temperature. The tables contain the relative stability values compared to wild-type thermolysin, which is the quotient of the variant residual activity divided by the wild-type residual activity. A value greater than one indicates higher stability in the presence of detergent. […]

[2] = Stability assay in 25% TIDE 2X detergent with DTPA (residual Abz-AGLA-Nba protease activity); type: physicochemical; details: 60 min at 32°C; variant residual AGLA activity divided by wild-type residual activity
Experimental: as §1, §2, §3, §4, §5, §6, §7, §8, §9, §10, §11

B1: A056C: single-substitution thermolysin variant (SEQ ID NO:3 numbering) (protein, listed as Geobacillus caldoproteolyticus)
chain: ITGTSTVGVGRGVLGDQKNINTTYSTYYYLQDNTRGNGIFTYDAKYRTTLPGSLWCDADNQFFASYDAPAVDAHYYAGVTYDYYKNVHNRLSYDGNNAAIRSSVHYSQGYNNAFWNGSQMVYGDGDGQTFIPLSGGIDVVAHELTHAVTDYTAGLIYQNESGAINEAISDIFGTLVEFYANKNPDWEIGEDVYTPGISGDSLRSMSDPAKYGDPDHYSKRYTGTQDNGGVHINSGIINKAAYLISQGGTHYGVSVVGIGRDKLGKIFYRALTQYLTPTSNFSQLRAAAVQSATDLYGSTSQEVASVKQAFDAVGVK
PI (relative stability), 25% TIDE 2X without DTPA [1]: 1.19 | PI (relative stability), 25% TIDE 2X with DTPA [2]: 1.01

B2: T006C: single-substitution thermolysin variant (SEQ ID NO:3 numbering) (protein, listed as Geobacillus caldoproteolyticus)
chain: ITGTSCVGVGRGVLGDQKNINTTYSTYYYLQDNTRGNGIFTYDAKYRTTLPGSLWADADNQFFASYDAPAVDAHYYAGVTYDYYKNVHNRLSYDGNNAAIRSSVHYSQGYNNAFWNGSQMVYGDGDGQTFIPLSGGIDVVAHELTHAVTDYTAGLIYQNESGAINEAISDIFGTLVEFYANKNPDWEIGEDVYTPGISGDSLRSMSDPAKYGDPDHYSKRYTGTQDNGGVHINSGIINKAAYLISQGGTHYGVSVVGIGRDKLGKIFYRALTQYLTPTSNFSQLRAAAVQSATDLYGSTSQEVASVKQAFDAVGVK
PI (relative stability), 25% TIDE 2X without DTPA [1]: 1.07 | PI (relative stability), 25% TIDE 2X with DTPA [2]: 1.03

B3: S065C: single-substitution thermolysin variant (SEQ ID NO:3 numbering) (protein, listed as Geobacillus caldoproteolyticus)
chain: ITGTSTVGVGRGVLGDQKNINTTYSTYYYLQDNTRGNGIFTYDAKYRTTLPGSLWADADNQFFACYDAPAVDAHYYAGVTYDYYKNVHNRLSYDGNNAAIRSSVHYSQGYNNAFWNGSQMVYGDGDGQTFIPLSGGIDVVAHELTHAVTDYTAGLIYQNESGAINEAISDIFGTLVEFYANKNPDWEIGEDVYTPGISGDSLRSMSDPAKYGDPDHYSKRYTGTQDNGGVHINSGIINKAAYLISQGGTHYGVSVVGIGRDKLGKIFYRALTQYLTPTSNFSQLRAAAVQSATDLYGSTSQEVASVKQAFDAVGVK
PI (relative stability), 25% TIDE 2X without DTPA [1]: 1.14 | PI (relative stability), 25% TIDE 2X with DTPA [2]: 1.05

B4: Q128C: single-substitution thermolysin variant (SEQ ID NO:3 numbering) (protein, listed as Geobacillus caldoproteolyticus)
chain: ITGTSTVGVGRGVLGDQKNINTTYSTYYYLQDNTRGNGIFTYDAKYRTTLPGSLWADADNQFFASYDAPAVDAHYYAGVTYDYYKNVHNRLSYDGNNAAIRSSVHYSQGYNNAFWNGSQMVYGDGDGCTFIPLSGGIDVVAHELTHAVTDYTAGLIYQNESGAINEAISDIFGTLVEFYANKNPDWEIGEDVYTPGISGDSLRSMSDPAKYGDPDHYSKRYTGTQDNGGVHINSGIINKAAYLISQGGTHYGVSVVGIGRDKLGKIFYRALTQYLTPTSNFSQLRAAAVQSATDLYGSTSQEVASVKQAFDAVGVK
PI (relative stability), 25% TIDE 2X without DTPA [1]: 1.05 | PI (relative stability), 25% TIDE 2X with DTPA [2]: 1.01

B5: S065E: single-substitution thermolysin variant (SEQ ID NO:3 numbering) (protein, listed as Geobacillus caldoproteolyticus)
chain: ITGTSTVGVGRGVLGDQKNINTTYSTYYYLQDNTRGNGIFTYDAKYRTTLPGSLWADADNQFFAEYDAPAVDAHYYAGVTYDYYKNVHNRLSYDGNNAAIRSSVHYSQGYNNAFWNGSQMVYGDGDGQTFIPLSGGIDVVAHELTHAVTDYTAGLIYQNESGAINEAISDIFGTLVEFYANKNPDWEIGEDVYTPGISGDSLRSMSDPAKYGDPDHYSKRYTGTQDNGGVHINSGIINKAAYLISQGGTHYGVSVVGIGRDKLGKIFYRALTQYLTPTSNFSQLRAAAVQSATDLYGSTSQEVASVKQAFDAVGVK
PI (relative stability), 25% TIDE 2X without DTPA [1]: 1.34 | PI (relative stability), 25% TIDE 2X with DTPA [2]: 1.08

B6: Y151A: single-substitution thermolysin variant (SEQ ID NO:3 numbering) (protein, listed as Geobacillus caldoproteolyticus)
chain: ITGTSTVGVGRGVLGDQKNINTTYSTYYYLQDNTRGNGIFTYDAKYRTTLPGSLWADADNQFFASYDAPAVDAHYYAGVTYDYYKNVHNRLSYDGNNAAIRSSVHYSQGYNNAFWNGSQMVYGDGDGQTFIPLSGGIDVVAHELTHAVTDATAGLIYQNESGAINEAISDIFGTLVEFYANKNPDWEIGEDVYTPGISGDSLRSMSDPAKYGDPDHYSKRYTGTQDNGGVHINSGIINKAAYLISQGGTHYGVSVVGIGRDKLGKIFYRALTQYLTPTSNFSQLRAAAVQSATDLYGSTSQEVASVKQAFDAVGVK
PI (relative stability), 25% TIDE 2X without DTPA [1]: 1.24 | PI (relative stability), 25% TIDE 2X with DTPA [2]: 1.15

B7: Y151C: single-substitution thermolysin variant (SEQ ID NO:3 numbering) (protein, listed as Geobacillus caldoproteolyticus)
chain: ITGTSTVGVGRGVLGDQKNINTTYSTYYYLQDNTRGNGIFTYDAKYRTTLPGSLWADADNQFFASYDAPAVDAHYYAGVTYDYYKNVHNRLSYDGNNAAIRSSVHYSQGYNNAFWNGSQMVYGDGDGQTFIPLSGGIDVVAHELTHAVTDCTAGLIYQNESGAINEAISDIFGTLVEFYANKNPDWEIGEDVYTPGISGDSLRSMSDPAKYGDPDHYSKRYTGTQDNGGVHINSGIINKAAYLISQGGTHYGVSVVGIGRDKLGKIFYRALTQYLTPTSNFSQLRAAAVQSATDLYGSTSQEVASVKQAFDAVGVK
PI (relative stability), 25% TIDE 2X without DTPA [1]: 1.09 | PI (relative stability), 25% TIDE 2X with DTPA [2]: 1.25

B8: Q128T: single-substitution thermolysin variant (SEQ ID NO:3 numbering) (protein, listed as Geobacillus caldoproteolyticus)
chain: ITGTSTVGVGRGVLGDQKNINTTYSTYYYLQDNTRGNGIFTYDAKYRTTLPGSLWADADNQFFASYDAPAVDAHYYAGVTYDYYKNVHNRLSYDGNNAAIRSSVHYSQGYNNAFWNGSQMVYGDGDGTTFIPLSGGIDVVAHELTHAVTDYTAGLIYQNESGAINEAISDIFGTLVEFYANKNPDWEIGEDVYTPGISGDSLRSMSDPAKYGDPDHYSKRYTGTQDNGGVHINSGIINKAAYLISQGGTHYGVSVVGIGRDKLGKIFYRALTQYLTPTSNFSQLRAAAVQSATDLYGSTSQEVASVKQAFDAVGVK
PI (relative stability), 25% TIDE 2X without DTPA [1]: 1.15 | PI (relative stability), 25% TIDE 2X with DTPA [2]: 1.18

B9: S065V: single-substitution thermolysin variant (SEQ ID NO:3 numbering) (protein, listed as Geobacillus caldoproteolyticus)
chain: ITGTSTVGVGRGVLGDQKNINTTYSTYYYLQDNTRGNGIFTYDAKYRTTLPGSLWADADNQFFAVYDAPAVDAHYYAGVTYDYYKNVHNRLSYDGNNAAIRSSVHYSQGYNNAFWNGSQMVYGDGDGQTFIPLSGGIDVVAHELTHAVTDYTAGLIYQNESGAINEAISDIFGTLVEFYANKNPDWEIGEDVYTPGISGDSLRSMSDPAKYGDPDHYSKRYTGTQDNGGVHINSGIINKAAYLISQGGTHYGVSVVGIGRDKLGKIFYRALTQYLTPTSNFSQLRAAAVQSATDLYGSTSQEVASVKQAFDAVGVK
PI (relative stability), 25% TIDE 2X without DTPA [1]: 1.08 | PI (relative stability), 25% TIDE 2X with DTPA [2]: 1.08
